Measurements from US20140087995A1 (published 2014).
Numbered stars: 1 amine (or outer) side, 2 acyl side, 3 side chain; on linkers, the order of the positions; unused ones are H or OH. Bridge positions count the residues as written; N and C are the ends. Side chains are listed from the residue outwards. Ends that are not written are not given here. * marks the point of attachment. C20 diacid = O=C(O)CCCCCCCCCCCCCCCCCCC(=O)*; γGlu = O=C(O)[C@H](CCC(=O)[*:2])N[*:1]; AEEA = NCCOCCOCC(=O)O

T1: rat calcitonin receptor (rat, UniProt P32214 25-516)
T1 construct: whole, on cells; Used as membranes prepared from the transfected cells; also called rCTR; rCT
T1 sequence (looked up): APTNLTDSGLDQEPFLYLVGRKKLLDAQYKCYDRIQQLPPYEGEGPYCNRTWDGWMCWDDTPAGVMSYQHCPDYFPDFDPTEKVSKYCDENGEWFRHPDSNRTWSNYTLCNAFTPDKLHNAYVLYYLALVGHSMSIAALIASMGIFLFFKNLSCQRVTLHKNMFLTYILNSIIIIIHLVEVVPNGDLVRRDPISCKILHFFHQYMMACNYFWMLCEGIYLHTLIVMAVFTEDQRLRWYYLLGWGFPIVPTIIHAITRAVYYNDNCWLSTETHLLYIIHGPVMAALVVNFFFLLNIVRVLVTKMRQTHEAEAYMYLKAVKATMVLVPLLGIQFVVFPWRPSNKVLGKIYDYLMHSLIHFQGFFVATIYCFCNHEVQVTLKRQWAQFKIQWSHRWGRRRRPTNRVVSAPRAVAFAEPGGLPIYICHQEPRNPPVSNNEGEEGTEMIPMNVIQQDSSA

T2: human calcitonin receptor (human, UniProt P30988 25-474)
T2 construct: whole, on cells; Used as membranes prepared from the transfected cells; also called hCTR; hCT
T2 sequence (looked up): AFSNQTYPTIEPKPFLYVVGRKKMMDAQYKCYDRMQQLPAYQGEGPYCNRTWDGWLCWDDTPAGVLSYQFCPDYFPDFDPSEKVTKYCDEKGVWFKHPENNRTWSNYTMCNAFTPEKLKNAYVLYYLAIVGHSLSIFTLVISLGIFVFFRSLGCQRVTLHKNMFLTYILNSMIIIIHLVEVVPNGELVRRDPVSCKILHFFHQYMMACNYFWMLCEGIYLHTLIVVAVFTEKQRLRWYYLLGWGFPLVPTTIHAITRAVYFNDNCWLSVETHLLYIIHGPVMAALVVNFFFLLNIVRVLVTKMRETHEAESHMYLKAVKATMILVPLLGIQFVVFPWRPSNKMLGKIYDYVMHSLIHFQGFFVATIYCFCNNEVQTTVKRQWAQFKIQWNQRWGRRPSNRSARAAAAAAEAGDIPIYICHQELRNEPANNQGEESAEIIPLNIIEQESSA


Experiments:
rat calcitonin receptor [1] = target: T1, rat calcitonin receptor; experiment: SPA competition with 125I-calcitonin, membranes with rat calcitonin receptor (Assay VIII)
rat calcitonin receptor [2] = target: T1, rat calcitonin receptor; experiment: ratio of binding IC50 at rat calcitonin receptor to IC50 at rat amylin receptor (reference)
[3] = target: T2, human calcitonin receptor; experiment: ratio of binding IC50 at human calcitonin receptor to IC50 at human amylin receptor (reference)
Procedure: The resulting pellet was resuspended, homogenized and centrifuged (20.000 rpm, 15 min) in a buffer containing 20 mM Na-HEPES and 0.1 mM EDTA (pH 7.4, buffer 2). The resulting pellet was resuspended in buffer 2 and protein concentration was measured (BCA protein Assay, Pierce). The homogenate was kept cold during the whole procedure. The membranes were kept at −80° C. until use. The assay was performed in a 384 well Optiplate (PerkinElmer) in a total volume of 40 ul. Membranes were mixed with SPA beads. Final concentration of membranes 35 ng/μL final and SPA beads was 0.05 mg/well. Test-compounds were dissolved in DMSO and further diluted in assay buffer (50 mM Hepes, pH 7.4, 1 mM CaCl2, 5 mM MgCl₂, 0.1% OA and 0.02% Tween20). […] The final mixture was incubated with shaking at 400 rpm for 120 min at 25° C. prior to centrifugation (1500 rpm, 10 min). Samples were analyzed on TopCounter™ (Packard). The IC₅₀ was calculated using (one site binding competition analysis) GraphPad Prism5 as a measure of receptor affinity.
Membranes were prepared in the following way; the cells were rinsed with PBS and incubated with Versene for approximately 5 min before harvesting. The cells were flushed with PBS and the cell-suspension was centrifuged for 5 min at 1000 rpm. Cells were homogenized (Ultrathurrax) in a buffer containing 20 mM Na-HEPES and 10 mM EDTA (pH 7.4) and centrifuged at 20.000 rpm for 15 min. The resulting pellet was resuspended, homogenized and centrifuged (20.000 rpm, 15 min) in a buffer containing 20 mM Na-HEPES and 0.1 mM EDTA (pH 7.4, buffer 2). The resulting pellet was resuspended in buffer 2 and protein concentration was measured (BCA protein Assay, Pierce). The homogenate was kept cold during the whole procedure. The membranes were kept at −80° C. until use. Assay was performed in a 384 well Optiplate (PerkinElmer) in a total volume of 40 ul. Membranes were mixed with SPA beads.

| IC50 (rat calcitonin receptor [1]) [nM] | Ratio rCT/rAmylin binding (rat calcitonin receptor [2]) | Ratio hCT/hAmylin binding [3] | Binder |
| --- | --- | --- | --- |
| 221 | 259 | 247 | K([AEEA-γGlu-C20 diacid])CNTATCATQRLAAFLRHSSPNFGAIPSSTPVGSNTY-NH2 (disulfide 2-7; N-terminus assumed; SMILES CC[C@H](C)[C@H](NC(=O)[C@H](C)NC(=O)CNC(=O)[C@H](Cc1ccccc1)NC(=O)[C@H](CC(N)=O)NC(=O)[C@@H]1CCCN1C(=O)[C@H](CO)NC(=O)[C@H](CO)NC(=O)[C@H](Cc1c[nH]cn1)NC(=O)[C@H](CCCNC(=N)N)NC(=O)[C@H](CC(C)C)NC(=O)[C@H](Cc1ccccc1)NC(=O)[C@H](C)NC(=O)[C@H](C)NC(=O)[C@H](CC(C)C)NC(=O)[C@H](CCCNC(=N)N)NC(=O)[C@H](CCC(N)=O)NC(=O)[C@@H](NC(=O)[C@H](C)NC(=O)[C@@H]1CSSC[C@H](NC(=O)[C@@H](N)CCCCNC(=O)COCCOCCNC(=O)CC[C@H](NC(=O)CCCCCCCCCCCCCCCCCCC(=O)O)C(=O)O)C(=O)N[C@@H](CC(N)=O)C(=O)N[C@@H]([C@@H](C)O)C(=O)N[C@@H](C)C(=O)N[C@@H]([C@@H](C)O)C(=O)N1)[C@@H](C)O)C(=O)N1CCC[C@H]1C(=O)N[C@@H](CO)C(=O)N[C@@H](CO)C(=O)N[C@H](C(=O)N1CCC[C@H]1C(=O)N[C@H](C(=O)NCC(=O)N[C@@H](CO)C(=O)N[C@@H](CC(N)=O)C(=O)N[C@H](C(=O)N[C@@H](Cc1ccc(O)cc1)C(N)=O)[C@@H](C)O)C(C)C)[C@@H](C)O, Analogue of human amylin; disulfide and C-terminal amide as told for h-amylin; also called compound 72) |
| 29.4 | 76.3 | 101 | K([AEEA-C20 diacid])CNTATCATQRLANFLRHSSPNFGAIPSSTNVGHNTY-NH2 (disulfide 2-7; N-terminus assumed; SMILES CC[C@H](C)[C@H](NC(=O)[C@H](C)NC(=O)CNC(=O)[C@H](Cc1ccccc1)NC(=O)[C@H](CC(N)=O)NC(=O)[C@@H]1CCCN1C(=O)[C@H](CO)NC(=O)[C@H](CO)NC(=O)[C@H](Cc1c[nH]cn1)NC(=O)[C@H](CCCNC(=N)N)NC(=O)[C@H](CC(C)C)NC(=O)[C@H](Cc1ccccc1)NC(=O)[C@H](CC(N)=O)NC(=O)[C@H](C)NC(=O)[C@H](CC(C)C)NC(=O)[C@H](CCCNC(=N)N)NC(=O)[C@H](CCC(N)=O)NC(=O)[C@@H](NC(=O)[C@H](C)NC(=O)[C@@H]1CSSC[C@H](NC(=O)[C@@H](N)CCCCNC(=O)COCCOCCNC(=O)CCCCCCCCCCCCCCCCCCC(=O)O)C(=O)N[C@@H](CC(N)=O)C(=O)N[C@@H]([C@@H](C)O)C(=O)N[C@@H](C)C(=O)N[C@@H]([C@@H](C)O)C(=O)N1)[C@@H](C)O)C(=O)N1CCC[C@H]1C(=O)N[C@@H](CO)C(=O)N[C@@H](CO)C(=O)N[C@H](C(=O)N[C@@H](CC(N)=O)C(=O)N[C@H](C(=O)NCC(=O)N[C@@H](Cc1c[nH]cn1)C(=O)N[C@@H](CC(N)=O)C(=O)N[C@H](C(=O)N[C@@H](Cc1ccc(O)cc1)C(N)=O)[C@@H](C)O)C(C)C)[C@@H](C)O, Analogue of human amylin; disulfide and C-terminal amide as told for h-amylin; also called compound 91) [N^ε1-[2-[2-[2-(19-carboxynonadecanoylamino)ethoxy]ethoxy]acetyl]-[Arg17,Pro21,Pro27,His34]-h-amylin] |
